Results reported in patent US20220348970A1, “METHODS AND COMPOSITIONS FOR 3-HYDROXYPROPIONATE PRODUCTION” (The Regents of the University of California, priority 2017, published 2022).

Tests used:
[1] = target: Actinobacillus succinogenes PCK (phosphoenolpyruvate carboxykinase), SEQ ID NO: 163 (Actinobacillus succinogenes, UniProt A6VKV4); assay: Kinetics of PEPCK against PEP (carboxylation direction, malate dehydrogenase/NADH coupled); assay type: biochemical; settings: 100 mM PBS buffer (pH 6.5), 1.25 mM ADP, 50 mM KHCO3, 2 mM MnCl2
Chain of Actinobacillus succinogenes PCK (phosphoenolpyruvate carboxykinase), SEQ ID NO: 163 (A6VKV4 whole entry): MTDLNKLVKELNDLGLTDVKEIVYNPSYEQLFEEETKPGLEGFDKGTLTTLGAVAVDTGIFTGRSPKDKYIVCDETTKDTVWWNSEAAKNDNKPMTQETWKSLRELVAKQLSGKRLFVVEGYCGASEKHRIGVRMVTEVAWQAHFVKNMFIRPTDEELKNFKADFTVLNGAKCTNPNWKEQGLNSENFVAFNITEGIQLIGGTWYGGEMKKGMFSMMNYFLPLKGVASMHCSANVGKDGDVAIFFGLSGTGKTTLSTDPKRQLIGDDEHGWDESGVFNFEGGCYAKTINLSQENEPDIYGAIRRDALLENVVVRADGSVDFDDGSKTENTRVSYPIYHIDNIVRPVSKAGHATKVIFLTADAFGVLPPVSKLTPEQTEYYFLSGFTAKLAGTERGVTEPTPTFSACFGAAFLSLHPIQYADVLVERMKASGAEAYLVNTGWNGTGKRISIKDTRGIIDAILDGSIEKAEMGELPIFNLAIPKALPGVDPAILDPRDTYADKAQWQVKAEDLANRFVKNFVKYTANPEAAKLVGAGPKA
Description: (§1) 5 genes encoding candidate PEPCKs were synthesized and cloned into expression vectors. After obtaining solubly expressed proteins, they were used for activity characterization. Each enzyme was assayed in the phosphenolpyruvate carboxylation direction in a solution containing 100 mM PBS buffer (pH 6.5), 0.20 mM NADH, 1.25 mM ADP, 2.5 mM PEP, 50 mM KHCO3, 2 mM MnCl2, and 4 units malate dehydrogenase.

[2] = substrate: NC(=O)c1ccc[n+]([C@@H]2O[C@H](COP(=O)([O-])OP(=O)(O)OC[C@H]3O[C@@H](n4cnc5c(N)ncnc54)[C@H](O)[C@@H]3O)[C@@H](O)[C@H]2O)c1; assay: 3-HPDH activity towards 3-HP (reverse reaction) using NAD+; assay type: biochemical, Metallosphaera sedula; settings: other: activity towards 3-HP, pH 7.2, 21° C.
Description: (§2) Candidate ADHs were expressed in E. coli, and soluble expression levels were analyzed. 3-HP dehydrogenase (3-HPDH) activity of each was tested based on the reverse reaction, from 3-HP to 3-oxopropanoate. The assay was performed in a 96-well half-area plate. Each reaction contained a final concentration of 1 mM NADP^+/NAD^+ in reaction buffer (100 mM Hepes, 100 mM NaCl, 10% glycerol, pH 7.2) and ADHs. A range of substrates from 0.1 mM-5 mM was used to perform steady-state kinetics measurement over a period of an hour. Absorbance readings were taken every 1 min at OD 340 at 21° C. for 60 min. using the Synergy™ H1 Hybrid Multi-Mode Microplate Reader (Biotek). Kinetic parameters (kcat and KM) were determined by fitting initial velocity versus substrate concentration data to the Michaelis-Menten equation.

[3] = substrate: C=C(OP(=O)(O)O)C(=O)O; assay: Kinetics of PEPCK against PEP (carboxylation direction, malate dehydrogenase/NADH coupled); assay type: biochemical, E. coli; settings: other: PEP, 100 mM PBS buffer (pH 6.5), 1.25 mM ADP, 50 mM KHCO3, 2 mM MnCl2
Description: as §1

[4] = substrate: NC(=O)c1ccc[n+]([C@@H]2O[C@H](COP(=O)([O-])OP(=O)(O)OC[C@H]3O[C@@H](n4cnc5c(N)ncnc54)[C@H](O)[C@@H]3O)[C@@H](O)[C@H]2O)c1; assay: 3-HPDH activity towards 3-HP (reverse reaction) using NAD+; assay type: biochemical; settings: other: activity towards 3-HP, pH 7.2, 21° C.
Description: as §2

[5] = substrate: O=C(O)CC(=O)C(=O)O; assay: OAADC kinetics of 5EUJ on oxaloacetate; assay type: biochemical; settings: other: oxaloacetate, pH 7.2, 21° C.
Description: (§3) All substrates were dissolved in MilliQ H2O and the pH was adjusted to 7.2 as necessary. Activity for oxaloacetate, pyruvate, and 2-ketoisovalerate was measured at a 1 mM substrate concentration. The assay was performed in a 96-well half-area plate. Each reaction contained reaction buffer (100 mM HEPES, 100 mM NaCl, 10% glycerol, pH 7.2), ADH (Sigma-Aldrich, A7011, 100 U/mL for pyruvate, 600 U/mL for oxaloacetate, and 600 U/mL for 2-ketoisovalerate), and a final concentration of 0.5 mM NADPH, 0.1 mM TPP, and 1 mM MgSO4. A range of substrate concentrations (0.1 mM-5 mM) were uSEQ to perform steady-state kinetics measurement over a period of one hour. Absorbance readings were taken at one minute intervals at 340 nm at 21° C. for 60 minutes using the Synergy H1 spectrophotometer (Biotek). Kinetic parameters (ka and Ks1) were determined by fitting initial velocity versus substrate concentration data to the Michaelis-Menten equation.
(§4) A second round of genome mining was conducted as described in Example 1, except using the 4COK sequence as the input. Genes encoding candidate OAADCs were synthesized and expressed in E. coli for further characterization. OAADC activity was assayed as described in Example 1.

[6] = substrate: CC(=O)C(=O)O; assay: Steady-state kinetics of 4COK decarboxylase on pyruvate and oxaloacetate (ADH/NADPH coupled, 340 nm); assay type: biochemical, Gluconacetobacter diazotrophicus; settings: other: pH 7.2, 21° C., 0.1 mM-5 mM substrate
Description: Overnight cultures of BLR cells suspended in a 2 mL volume were transformed with a pet29b+ plasmid (encoding polypeptides of interest with a C-terminal His-tag) and grown in Terrific Broth with 50 μg/ml kanamycin. Cultures were diluted 1:1.000 in 500 ml of Terrific Broth with 1 mM MgSO4, 1% glucose and 50 μg/ml antibiotic and then grown at 37° C. for 24 hours. Cultures were pelleted down at 4,700 RPM for 10 minutes and resuspended in auto-induction media (LB broth, 1 mM MgSO4, 0.1 mM TPP, 1×NPS and 1×5052) for induction at 18° C. for 20 hours. At the end of induction, cells were centrifuged, the supernatant was removed and cells were resuspended in 40 mL lysis buffer (100 mM HEPES, pH 7.5, 100 mM NaCl, 10% glycerol, 0.1 mM TPP, 1 mM MgSO4, 10 mM Imidazole, 1 mM TCEP) and 1 mM phenylmethylsulphonyl fluoride. The cell lysate suspension was sonicated for 2 min and followed by centrifugation at 4,700 RPM. The supernatant was loaded onto a gravity flow column with 500 uL Cobalt beads and was washed with 15 mL of wash buffer five times. Proteins were eluted with […] of elution buffer (100 mM HEPES, pH 7.5, 100 mM NaCl, 10% glycerol, 0.1 mM TPP, 1 mM MgSO4, 200 mM Imidazole and 1 mM TCEP). Protein concentrations were determined using a Synergy H1 spectrophotometer (Biotek) by measuring absorbance at 280 nm using calculated extinction coefficients.
All substrates were dissolved in MilliQ H2O and the pH was adjusted to 7.2 as necessary. Activity for oxaloacetate, pyruvate, and 2-ketoisovalerate was measured at a 1 mM substrate concentration. The assay was performed in a 96-well half-area plate. […] Absorbance readings were taken at one minute intervals at 340 nm at 21° C. for 60 minutes using the Synergy H1 spectrophotometer (Biotek). Kinetic parameters (ka and Ks1) were determined by fitting initial velocity versus substrate concentration data to the Michaelis-Menten equation. […]

[7] = substrate: O=C(O)CC(=O)C(=O)O; assay: OAADC kinetics of A0A0J7KM68 on oxaloacetate; assay type: biochemical; settings: other: oxaloacetate, pH 7.2, 21° C.
Description: as §3, §4

C=C(OP(=O)(O)O)C(=O)O [PEP, phosphoenolpyruvate]
Km [1]: 169 µM | kcat [1]: 2.875 s⁻¹

B1: 3-HPDH A4YI81, SEQ ID NO: 154 (Metallosphaera sedula DSM 5348) (protein)
chain: MTEKVSVVGAGVIGVGWATLFASKGYSVSLYTEKKETLDKGIEKLRNYVQVMKNNSQITEDVNTVISRVSPTTNLDEAVRGANFVIEAVIEDYDAKKKIFGYLDSVLDKEVILASSTSGLLITEVQKAMSKHPERAVIAHPWNPPHLLPLVEIVPGEKTSMEVVERTKSLMEKLDRIVVVLKKEIPGFIGNRLAFALFREAVYLVDEGVATVEDIDKVMTAAIGLRWAFMGPFLTYHLGGGEGGLEYFFNRGFGYGANEWMHTLAKYDKFPYTGVTKAIQQMKEYSFIKGKTFQEISKWRDEKLLKVYKLVWEK
notes: UniProt strain ATCC 51363 / DSM 5348 / TH2
Km [2]: 650 µM

B2: E. coli PCK (phosphoenolpyruvate carboxykinase, PCKA_Ecoli), SEQ ID NO: 162 (Escherichia coli K-12) (protein)
chain: MRVNNGLTPQELEAYGISDVHDIVYNPSYDLLYQEELDPSLTGYERGVLTNLGAVAVDTGIFTGRSPKDKYIVRDDTTRDTFWWADKGKGKNDNKPLSPETWQHLKGLVTRQLSGKRLFVVDAFCGANPDTRLSVRFITEVAWQAHFVKNMFIRPSDEELAGFKPDFIVMNGAKCTNPQWKEQGLNSENFVAFNLTERMQLIGGTWYGGEMKKGMFSMMNYLLPLKGIASMHCSANVGEKGDVAVFFGLSGTGKTTLSTDPKRRLIGDDEHGWDDDGVFNFEGGCYAKTIKLSKEAEPEIYNAIRRDALLENVTVREDGTIDFDDGSKTENTRVSYPIYHIDNIVKPVSKAGHATKVIFLTADAFGVLPPVSRLTADQTQYHFLSGFTAKLAGTERGITEPTPTFSACFGAAFLSLHPTQYAEVLVKRMQAAGAQAYLVNTGWNGTGKRISIKDTRAIIDAILNGSLDNAETFTLPMFNLAIPTELPGVDTKILDPRNTYASPEQWQEKAETLAKLFIDNFDKYTDTPAGAALVAAGPKL
Km [3]: 190.5 µM | kcat [3]: 3.42 s⁻¹ | kcat/Km [3]: 18000 M⁻¹ s⁻¹

B3: 3-HPDH 2CVZ, SEQ ID NO: 159 (Thermus thermophilus HB8) (protein)
chain: MEKVAFIGLGAMGYPMAGHLARRFPTLVWNRTFEKALRHQEEFGSEAVPLERVAEARVIFTCLPTTREVYEVAEALYPYLREGTYWVDATSGEPEASRRLAERLREKGVTYLDAPVSGGTSGAEAGTLTVMLGGPEEAVERVRPFLAYAKKVVHVGPVGAGHAVKAINNALLAVNLWAAGEGLLALVKQGVSAEKALEVINASSGRSNATENLIPQRVLTRAFPKTFALGLLVKDLGIAMGVLDGEKAPSPLLRLAREVYEMAKRELGPDADHVEALRLLERWGGVEIR
notes: PDB 2CVZ is from strain HB8 (ATCC 27634 / DSM 579)
Km [4]: 420 µM

B4: OAADC 5EUJ, SEQ ID NO: 146 (Zymobacter palmae) (protein)
chain: MYTVGMYLAERLAQIGLKHHFAVAGDYNLVLLDQLLLNKDMEQVYCCNELNCGFSAEGYARARGAAAAIVTFSVGAISAMNAIGGAYAENLPVILISGSPNTNDYGTGHILHHTIGTTDYNYQLEMVKHVTCAAESIVSAEEAPAKIDHVIRTALRERKPAYLEIACNVAGAECVRPGPINSLLRELEVDQTSVTAAVDAAVEWLQDRQNVVMLVGSKLRAAAAEKQAVALADRLGCAVTIMAAAKGFFPEDHPNFRGLYWGEVSSEGAQELVENADAILCLAPVFNDYATVGWNSWPKGDNVMVMDTDRVTFAGQSFEGLSLSTFAAALAEKAPSRPATTQGTQAPVLGIEAAEPNAPLTNDEMTRQIQSLITSDTTLTAETGDSWFNASRMPIPGGARVELEMQWGHIGWSVPSAFGNAVGSPERRHIMMVGDGSFQLTAQEVAQMIRYEIPVIIFLINNRGYVIEIAIHDGPYNYIKNWNYAGLIDVFNDEDGHGLGLKASTGAELEGAIKKALDNRRGPTLIECNIAQDDCTETLIAWGKRVAATNSRKPQAGGSG
Km [5]: 6667 µM | kcat [5]: 28.8 s⁻¹ | kcat/Km [5]: 4320 ± 321 M⁻¹ s⁻¹

B5: pyruvate decarboxylase from Gluconacetobacter diazotrophicus (4COK), SEQ ID NO: 1 (Gluconacetobacter diazotrophicus PA1 5) (protein)
chain: MTYTVGRYLADRLAQIGLKHHFAVAGDYNLVLLDQLLLNTDMQQIYCSNELNCGFSAEGYARANGAAAAIVTFSVGALSAFNALGGAYAENLPVILISGAPNANDHGTGHILHHTLGTTDYGYQLEMARHITCAAESIVAAEDAPAKIDHVIRTALREKKPAYLEIACNVAGAPCVRPGGIDALLSPPAPDEASLKAAVDAALAFIEQRGSVTMLVGSRIRAAGAQAQAVALADALGCAVTTMAAAKSFFPEDHPGYRGHYWGEVSSPGAQQAVEGADGVICLAPVFNDYATVGWSAWPKGDNVMLVERHAVTVGGVAYAGIDMRDFLTRLAAHTVRRDATARGGAYVTPQTPAAAPTAPLNNAEMARQIGALLTPRTTLTAETGDSWFNAVRMKLPHGARVELEMQWGHIGWSVPAAFGNALAAPERQHVLMVGDGSFQLTAQEVAQMIRHDLPVIIFLINNHGYTIEVMIHDGPYNNVKNWDYAGLMEVFNAGEGNGLGLRARTGGELAAAIEQARANRNGPTLIECTLDRDDCTQELVTWGKRVAAANARPPRAG
notes: likely strain PAl 5 (ATCC 49037 / DSM 5601)
Km [6]: 1490 ± 430 µM | kcat [6]: 8.25 ± 1.87 s⁻¹ | kcat/Km [6]: 5532 ± 39.4 M⁻¹ s⁻¹

B6: OAADC A0A0J7KM68_LASNI, SEQ ID NO: 145 (Lasius niger) (protein)
chain: MSYTVGQYLADRLVQIGLKDHFAIAGDYNLVLLDQFLKNKNWNQIYDCNELNCGFAAEGYARANGAAACVVTYTVGAISAMNSALAGAYAENLPVLCISGAPNCNDYGSGRILHHTIGKPEFTQQLDMVKHVTCAAESVVQASEAPAKIDHVIRTMLLEQRPAYIDIACNISGLECPRPGPIEDLLPQYAADNKSLTSAIDAIAKKIEASQKVTLYVGPKVRPGKAKEASVKLADALGCAVTVGPASMSFFPAKHPGFRGTYWGIVSTGDANKVVEEAETLIVLGPNWNDYATVGWKAWPKGPRVVTIDEKAAQVDGQVFSGLSMKALVEGLAKKVSKKPATAEGTKAPHFEYPVAKPDAKLTNAEMARQINAILDDNTTLHAETGDSWFNVKNMNWPNGLRIESEMQYGHIGWSIPSGFGGAIGSPERKHIIMCGDGSFQLTCQEVSQMIRYKLPVTIFLIDNHGYGIEIAIHDGPYNYIQNWNFTKLMEVFNGEGEECPYSHNKNGKSGLGLKATTPAELADAIKQAEANKEGPTLIQVVIDQDDCTKDLLTWGKEVAKTNARSPVVTDKAGGSG
Km [7]: 2389 µM | kcat [7]: 6.25 s⁻¹ | kcat/Km [7]: 2620 ± 224 M⁻¹ s⁻¹
